Measurements reported in PMC8809517, “Cofactor-independent RNA editing by a synthetic S-type PPR protein”.
Changes are numbered by the printed parent chain.

T1: GFP-9S library array, motif 4 ND N98E;D124W (synthetic construct, N98E;D124W)
T1 chain: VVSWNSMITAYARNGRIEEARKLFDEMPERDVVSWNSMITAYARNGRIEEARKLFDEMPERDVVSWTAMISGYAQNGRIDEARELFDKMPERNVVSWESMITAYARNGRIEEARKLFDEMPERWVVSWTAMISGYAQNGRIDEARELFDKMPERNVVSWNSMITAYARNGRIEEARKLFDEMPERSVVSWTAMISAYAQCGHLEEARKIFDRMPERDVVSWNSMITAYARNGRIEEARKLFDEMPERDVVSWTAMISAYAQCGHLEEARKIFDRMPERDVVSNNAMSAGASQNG

T2: GFP-9S library array, motif 4 ND N98C;D124N (synthetic construct, N98C;D124N)
T2 chain: T1 chain with E98C, W124N

T3: GFP-9S library array, motif 4 ND N98S;D124F (synthetic construct, N98S;D124F)
T3 chain: T1 chain with E98S, W124F

T4: GFP-9S library array, motif 4 ND N98R;D124S (synthetic construct, N98R;D124S)
T4 chain: T1 chain with E98R, W124S

T5: GFP-9S library array, motif 4 ND N98F;D124M (synthetic construct, N98F;D124M)
T5 chain: T1 chain with E98F, W124M


Assays:
Assay in all cases: high-throughput RNA pulldown from lysate on Ni-NTA beads; HRP: 50 mM Tris pH 8, 150 mM NaCl, 1 mM beta-mercaptoethanol, 50 ug/ml BSA, 3 ug/ml yeast RNA, 0.5% heparin; ITC and FP: Tris pH 8, 200 mM KCl, 5% glycerol; MST: 50 mM Tris pH 8, 200 mM NaCl, 1 mM DTT, BSA, heparin, 0.05% Tween 20
Conditions in all cases: tags: N-terminal His-eGFP
[1] = target: T1, GFP-9S library array, motif 4 ND …
[2] = target: T2, GFP-9S library array, motif 4 ND …
[3] = target: T3, GFP-9S library array, motif 4 ND …
[4] = target: T4, GFP-9S library array, motif 4 ND …
[5] = target: T5, GFP-9S library array, motif 4 ND …

Row | Binder | Kd ([1]; label: 5' IRDye 800CW) [nM] | Kd ([2]; label: 5' IRDye 800CW) [nM] | Kd ([3]; label: 5' IRDye 800CW) [nM] | Kd ([4]; label: 5' IRDye 800CW) [nM] | Kd ([5]; label: 5' IRDye 800CW) [nM] | Kd ([1]; label: 5' Cy5) [nM] | Kd ([2]; label: 5' Cy5) [nM] | Kd ([3]; label: 5' Cy5) [nM] | Kd ([4]; label: 5' Cy5) [nM] | Kd ([5]; label: 5' Cy5) [nM]
1 | AUUAUACGUGA (ssRNA) [IR-rpoA-U] | 648 | 152 | 171 | 88.9 | 194 | – | – | – | – | –
2 | AUUAGACGUGA (ssRNA) [Cy5-rpoA-G] | – | – | – | – | – | 198 | 346 | 77.7 | 93.6 | 69.1
3 | AUUAAACGUGA (ssRNA) [IR-rpoA-A] | 630 | 45 | 76.7 | 184 | 230 | – | – | – | – | –
4 | AUUACACGUGA (ssRNA) [Cy5-rpoA] | – | – | – | – | – | 213 | 213 | 39 | 72.7 | 76.7
